In PMC3097235:

B1: human tyrosinase: Δ2 (protein)
parent chain: MLLAVLYCLLWSFQTSAGHFPRACVSSKNLMEKECCPPWSGDRSPCGQLSGRGSCQNILLSNAPLGPQFPFTGVDDRESWPSVFYNRTCQCSGNFMGFNCGNCKFGFWGPNCTERRLLVRRNIFDLSAPEKDKFFAYLTLAKHTISSDYVIPIGTYGQMKNGSTPMFNDINIYDLFVWMHYYVSMDALLGGSEIWRDIDFAHEAPAFLPWHRLFLLRWEQEIQKLTGDENFTIPYWDWRDAEKCDICTDEYMGGQHPTNPNLLSPASFFSSWQIVCSRLEEYNSHQSLCNGTPEGPLRRNPGNHDKSRTPRLPSSADVEFCLSLTQYESGSMDKAANFSFRNTLEGFASPLTGIADASQSSMHNALHIYMNGTMSQVQGSANDPIFLLHHAFVDSIFEQWLRRHRPLQEVYPEANAPIGHNRESYMVPFIPLYRNGDFFISSKDLGYDYSYLQDSDPDSFQDYIKSYLEQASRIWSWLLGAAMVGAVLTALLAGLVSLLCRHKRKQLPEEKQPLLMEKEDYHSLYQSHL
B2: human tyrosinase: Δ3 (protein)
parent chain: B1 parent chain
B3: human tyrosinase: Δ4 (protein)
parent chain: B1 parent chain
B4: human tyrosinase: Δ6 (protein)
parent chain: B1 parent chain
B5: human tyrosinase: Δ7 (protein)
parent chain: B1 parent chain
B6: human tyrosinase: Δ1 (protein)
parent chain: B1 parent chain
B7: human tyrosinase: kifunensine (protein)
parent chain: B1 parent chain
B8: human tyrosinase: Δ(5,6,7) (protein)
parent chain: B1 parent chain
B9: human tyrosinase: Δall (protein)
parent chain: B1 parent chain

experiment: Endo H resistance (ER exit), immunoblot; details: glycan lost; control: wild type

Protein	localisation_or_trafficking
B1	abolishes
B2	abolishes
B3	abolishes
B4	abolishes
B5	abolishes
B6	decreases

experiment: pulse-chase IP of wild type, degradation; details: glycan changed form; control: untreated

Protein	degradation_or_half_life
B7	increases

experiment: pulse-chase IP with or without kifunensine; details: glycan lost; control: wild type (accumulates with kifunensine)

Protein	other: kifunensine rescue from degradation
B5	no change
B8	decreases
B9	abolishes

experiment: DOPA oxidase recovery after culture at 31°C; details: glycan lost; control: wild type

Protein	stability_or_folding
B1	decreases
B2	decreases
B3	decreases
B4	decreases
B5	abolishes
B6	decreases

experiment: DOPA oxidase specific activity, cells at 37°C; details: glycan lost; control: wild type

Protein	enzymatic_activity, percent_of_wt
B1	decreases, The remaining mutants show intermediate activity, ranging from 25% to 30%
B2	decreases, The remaining mutants show intermediate activity, ranging from 25% to 30%
B3	decreases, The remaining mutants show intermediate activity, ranging from 25% to 30%
B4	abolishes
B5	abolishes
B6	decreases, The remaining mutants show intermediate activity, ranging from 25% to 30%

experiment: immunofluorescence co-localisation with ER marker calnexin; details: glycan lost; control: wild type

Protein	localisation_or_trafficking
B1	changes
B2	changes
B3	changes
B4	changes
B5	changes
B6	changes

experiment: pulse-chase, DTT accessibility of disulfides, non-reducing SDS-PAGE; details: glycan lost; control: wild type

Protein	stability_or_folding
B5	decreases

experiment: immunofluorescence co-localisation with ERGIC-53, nocodazole-treated cells; details: glycan lost; control: wild type

Protein	localisation_or_trafficking
B1	no change
B2	no change
B3	no change
B4	no change
B5	no change
B6	no change
